Source: paper PMC11362306

Target: BLIP2 with azF at residue 41 (BLIP2^41azF)
Experiment: CNT-FET conductance (I-V); BLIP2 azF variant photochemically attached to p-type SWCNTs of a CNT-FET; BL (or BSA) added in DPBS, to 1.4 μM or stepwise; I-V curves, room temperature; also with 0.5% (w/v) BSA for TEM-1 on BLIP2^213azF

Which conductance increase, fold lower than on BLIP2^213azF devices does the source give for “TEM-1 β-lactamase (from UniProt P62593 24-286) (enzyme)” here?
The conductance increase, fold lower than on BLIP2^213azF devices was 4 fold.
